Reference: the supplement of paper PMC10567573

B1: ANKRD40 (parent)
chain: VRIQNPSLRENDFIEIELDRQELT
B2: TRIM55 (parent)
chain: FQMEKIEHGYENMNHFTVNLNREE

Variants of: B1
Assay: protein stability index of a GFP-peptide fusion (GPS, HEK-293T) (PSI 1-6); higher = more stable
Settings: c terminus: a fixed tail appended
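Note: lentivirally expressed fusions sorted by FACS into six bins by GFP to DsRed ratio, PSI derived from sequencing read proportions per bin multiplied by bin number.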

Variant	protein stability index
VRIQNPSLCENDFIEIELDRQELT [R9C]	2.33
VRIQNPSLQENDFIEIELDRQELT [R9Q]	2.16
VRIQNPSLGENDFIEIELDRQELT [R9G]	2.32
VRIQNPSLPENDFIEIELDRQELT [R9P]	2.63
VRIQNPSLMENDFIEIELDRQELT [R9M]	1.97
VRIQNPSLAENDFIEIELDRQELT [R9A]	1.92
VGIQNPSLRENDFIEIELDRQELT [R2G]	4.28
VQIQNPSLRENDFIEIELDRQELT [R2Q]	4.3
VHIQNPSLRENDFIEIELDRQELT [R2H]	3.13
VYIQNPSLRENDFIEIELDRQELT [R2Y]	1.73
VPIQNPSLRENDFIEIELDRQELT [R2P]	4.93
VDIQNPSLRENDFIEIELDRQELT [R2D]	4.69
VRIQNPSLRENDFIEIELDFQELT [R20F]	2.96
VRIQNPSLRENDFIEIELDMQELT [R20M]	2.92
VRIQNPSLRENDFIEIELDCQELT [R20C]	2.12
VRIQNPSLRENDFIEIELDYQELT [R20Y]	1.84
VRIQNPSLRENDFIEIELDGQELT [R20G]	2.56
VRIQNPSLRENDFIEIELDNQELT [R20N]	2.77
VRIQNPSLRENDFIEIELDEQELT [R20E]	2.42
VRIQNPSLRENDFIEINLDRQELT [E17N]	2.66
VRIQNPSLRENDFIEICLDRQELT [E17C]	1.65
VRIQNPSLRENDFIEITLDRQELT [E17T]	1.86
VRIQNPSLRENDFIEIDLDRQELT [E17D]	2.7
VRIQNPSLRENDFIEIWLDRQELT [E17W]	1.85
VRIQNPSLRENDFIEIQLDRQELT [E17Q]	1.96

Variant	protein stability index
VRIQNPSLRENDFIEIALDRQELT [E17A]	2.47
VRIQNPSLRENDFIEIVLDRQELT [E17V]	1.35
VRIQNPSLRENDFIEIPLDRQELT [E17P]	3.44
VRIQNPSLRENDHIEIELDRQELT [F13H]	4.08
VRIQNPSLRENDCIEIELDRQELT [F13C]	3.15
VRIQNPSLRENDVIEIELDRQELT [F13V]	3.41
VRIQNPSLRENDMIEIELDRQELT [F13M]	3.21
VRIQNPSLRENDDIEIELDRQELT [F13D]	4.61
VRIQNPSLRENDNIEIELDRQELT [F13N]	4.18
VRIQNPSLRENDAIEIELDRQELT [F13A]	3.81
VRIQNPSLRERDFIEIELDRQELT [N11R]	2.63
VRIQNPSLREADFIEIELDRQELT [N11A]	2.18
VRIQNPSLREHDFIEIELDRQELT [N11H]	2.39
VRIQNPSLREQDFIEIELDRQELT [N11Q]	2.54
VRIQNPSLREPDFIEIELDRQELT [N11P]	2.73
VRIQNPSLREEDFIEIELDRQELT [N11E]	1.79
VRIQNPSLRENDFIEIEPDRQELT [L18P]	4.35
VRIQNPSLRENDFIEIEQDRQELT [L18Q]	4.7
VRIQNPSLRENDFIEIEDDRQELT [L18D]	4.8
VRIQNPSLRENDFIEIEGDRQELT [L18G]	4.38
VRIQNPSLRENDFIEIEEDRQELT [L18E]	5.04
VRIQNPSLRENDFIEIEKDRQELT [L18K]	4.62
VRIQNPSLRENDFIEIEHDRQELT [L18H]	4.48
VRIQNPSLRENDFIEIEADRQELT [L18A]	4.2
VRIQNPSLRENDFIEIENDRQELT [L18N]	4.72

Variant	protein stability index
VRIQNPSLRENDFIEIERDRQELT [L18R]	4.37
VRIQNPSLRENDFIEIEMDRQELT [L18M]	3.3
PRIQNPSLRENDFIEIELDRQELT [V1P]	4.53
TRIQNPSLRENDFIEIELDRQELT [V1T]	3.96
SRIQNPSLRENDFIEIELDRQELT [V1S]	4.3
RRIQNPSLRENDFIEIELDRQELT [V1R]	3.63
KRIQNPSLRENDFIEIELDRQELT [V1K]	3.97
CRIQNPSLRENDFIEIELDRQELT [V1C]	3.51
LRIQNPSLRENDFIEIELDRQELT [V1L]	2.71
FRIQNPSLRENDFIEIELDRQELT [V1F]	2.58
VRPQNPSLRENDFIEIELDRQELT [I3P]	3.77
VRVQNPSLRENDFIEIELDRQELT [I3V]	3.06
VRAQNPSLRENDFIEIELDRQELT [I3A]	4.17
VRGQNPSLRENDFIEIELDRQELT [I3G]	4.05
VRSQNPSLRENDFIEIELDRQELT [I3S]	3.84
VRYQNPSLRENDFIEIELDRQELT [I3Y]	3.11
VRRQNPSLRENDFIEIELDRQELT [I3R]	3.88
VRWQNPSLRENDFIEIELDRQELT [I3W]	2.4
VRIQNPSLRENDFIEIELDRQEMT [L23M]	2.77
VRIQNPSLRENDFIEIELDRQEST [L23S]	3.89
VRIQNPSLRENDFIEIELDRQEIT [L23I]	2.45
VRIQNPSLRENDFIEIELDRQECT [L23C]	2.8
VRIQNPSLRENDFIEIELDRQEAT [L23A]	3.58
VRIQNPSLRENDFIEIELDRQENT [L23N]	3.69
VRIQNPSLRENDFIEIELDRQEET [L23E]	4.27

Variant	protein stability index
VRIQNPSLRENDFVEIELDRQELT [I14V]	3.1
VRIQNPSLRENDFPEIELDRQELT [I14P]	4.27
VRIQNPSLRENDFNEIELDRQELT [I14N]	4.85
VRIQNPSLRENDFREIELDRQELT [I14R]	4.34
VRIQNPSLRENDFCEIELDRQELT [I14C]	3.43
VRIQNPSLRENDFAEIELDRQELT [I14A]	4
VRIQNPSLRENDFWEIELDRQELT [I14W]	2.49
VRIQNPSLRENDFLEIELDRQELT [I14L]	3
VRIQNPSLRENDFHEIELDRQELT [I14H]	4.66
VRIQNPSCRENDFIEIELDRQELT [L8C]	2.36
VRIQNPSARENDFIEIELDRQELT [L8A]	2.77
VRIQNPSFRENDFIEIELDRQELT [L8F]	2.27
VRIQNPSKRENDFIEIELDRQELT [L8K]	2.96
VRIQNPSHRENDFIEIELDRQELT [L8H]	2.93
VRIQNPSDRENDFIEIELDRQELT [L8D]	2.76
VRIQNPSRRENDFIEIELDRQELT [L8R]	2.47
VRIQNPSSRENDFIEIELDRQELT [L8S]	3.24
VRIQNPSWRENDFIEIELDRQELT [L8W]	1.98
VRIQNPSERENDFIEIELDRQELT [L8E]	3.34
VRIQNPSYRENDFIEIELDRQELT [L8Y]	2.15
VRIQPPSLRENDFIEIELDRQELT [N5P]	2.08
VRIQLPSLRENDFIEIELDRQELT [N5L]	3.56
VRIQEPSLRENDFIEIELDRQELT [N5E]	3.08
VRIQTPSLRENDFIEIELDRQELT [N5T]	2.16
VRIQQPSLRENDFIEIELDRQELT [N5Q]	2.07

Variant	protein stability index
VRIQRPSLRENDFIEIELDRQELT [N5R]	2.29
VRIQNPSLRENDFICIELDRQELT [E15C]	1.87
VRIQNPSLRENDFILIELDRQELT [E15L]	2.25
VRIQNPSLRENDFIGIELDRQELT [E15G]	3.02
VRIQNPSLRENDFIHIELDRQELT [E15H]	2.94
VRIQNPSLRENDFIIIELDRQELT [E15I]	2.45
VRIQNPSLRENDFIESELDRQELT [I16S]	4.47
VRIQNPSLRENDFIEGELDRQELT [I16G]	4.55
VRIQNPSLRENDFIELELDRQELT [I16L]	2.65
VRIQNPSLRENDFIEPELDRQELT [I16P]	4.67
VRIQNPSLRENDFIERELDRQELT [I16R]	4.75
VRIQNPSLRENDFIEHELDRQELT [I16H]	4.59
VRIQNPSLRENDFIEFELDRQELT [I16F]	2.83
VRIQNPSLRENDFIENELDRQELT [I16N]	5.11
VRIQNPSLRENDFIEEELDRQELT [I16E]	4.8
VRIQNPSLRENDFIEAELDRQELT [I16A]	4.19
VRIRNPSLRENDFIEIELDRQELT [Q4R]	2.12
VRIMNPSLRENDFIEIELDRQELT [Q4M]	2.04
VRIVNPSLRENDFIEIELDRQELT [Q4V]	2.01
VRIYNPSLRENDFIEIELDRQELT [Q4Y]	1.98
VRIANPSLRENDFIEIELDRQELT [Q4A]	2.16
VRINNPSLRENDFIEIELDRQELT [Q4N]	2.46
VRIPNPSLRENDFIEIELDRQELT [Q4P]	2.63
VRIWNPSLRENDFIEIELDRQELT [Q4W]	1.61
VRIINPSLRENDFIEIELDRQELT [Q4I]	2.24

Variant	protein stability index
VRITNPSLRENDFIEIELDRQELT [Q4T]	2.27
VRIQNPSLRENYFIEIELDRQELT [D12Y]	1.06
VRIQNPSLRENRFIEIELDRQELT [D12R]	2.97
VRIQNPSLRENFFIEIELDRQELT [D12F]	2.14
VRIQNPSLRENMFIEIELDRQELT [D12M]	3.11
VRIQNPSLRENTFIEIELDRQELT [D12T]	1.66
VRIQNPSLRENKFIEIELDRQELT [D12K]	2.61
VRIQNESLRENDFIEIELDRQELT [P6E]	2.93
VRIQNNSLRENDFIEIELDRQELT [P6N]	2.67
VRIQNTSLRENDFIEIELDRQELT [P6T]	2.02
VRIQNVSLRENDFIEIELDRQELT [P6V]	2.02
VRIQNGSLRENDFIEIELDRQELT [P6G]	2.28
VRIQNSSLRENDFIEIELDRQELT [P6S]	2.16
VRIQNASLRENDFIEIELDRQELT [P6A]	2.75
VRIQNPCLRENDFIEIELDRQELT [S7C]	2.33
VRIQNPKLRENDFIEIELDRQELT [S7K]	2.81
VRIQNPGLRENDFIEIELDRQELT [S7G]	2.26
VRIQNPWLRENDFIEIELDRQELT [S7W]	2.2
VRIQNPELRENDFIEIELDRQELT [S7E]	2.8
VRIQNPHLRENDFIEIELDRQELT [S7H]	2.13
VRIQNPSLRENDFIEIELKRQELT [D19K]	2.24
VRIQNPSLRENDFIEIELTRQELT [D19T]	1.94
VRIQNPSLRENDFIEIELLRQELT [D19L]	2.22
VRIQNPSLRENDFIEIELCRQELT [D19C]	1.89
VRIQNPSLRENDFIEIELHRQELT [D19H]	1.69

Variant	protein stability index
VRIQNPSLRENDFIEIELQRQELT [D19Q]	2.42
VRIQNPSLRENDFIEIELMRQELT [D19M]	1.65
VRIQNPSLRENDFIEIELDRCELT [Q21C]	2.15
VRIQNPSLRENDFIEIELDRDELT [Q21D]	1.84
VRIQNPSLRENDFIEIELDRYELT [Q21Y]	2.32
VRIQNPSLRENDFIEIELDRKELT [Q21K]	2.24
VRIQNPSLRCNDFIEIELDRQELT [E10C]	1.73
VRIQNPSLRSNDFIEIELDRQELT [E10S]	2.51
VRIQNPSLRTNDFIEIELDRQELT [E10T]	2.28
VRIQNPSLRNNDFIEIELDRQELT [E10N]	2.15
VRIQNPSLRFNDFIEIELDRQELT [E10F]	1.92
VRIQNPSLRWNDFIEIELDRQELT [E10W]	1.91
VRIQNPSLRENDFIEIELDRQSLT [E22S]	2.1
VRIQNPSLRENDFIEIELDRQCLT [E22C]	1.68
VRIQNPSLRENDFIEIELDRQWLT [E22W]	1.82
VRIQNPSLRENDFIEIELDRQRLT [E22R]	2.65
VRIQNPSLRENDFIEIELDRQILT [E22I]	2.73
VRIQNPSLRENDFIEIELDRQVLT [E22V]	2.1
VRIQNPSLRENDFIEIELDRQELG [T24G]	2.92
VRIQNPSLRENDFIEIELDRQELL [T24L]	2.09
VRIQNPSLRENDFIEIELDRQELH [T24H]	2.63
VRIQNPSLRENDFIEIELDRQELE [T24E]	3.16
VRIQNPSLRENDFIEIELDRQELS [T24S]	2.85

Variants of: B2
Assay: as above
Settings: c terminus: a fixed tail appended

Variant	protein stability index
DQMEKIEHGYENMNHFTVNLNREE [F1D]	4.61
LQMEKIEHGYENMNHFTVNLNREE [F1L]	4.05
GQMEKIEHGYENMNHFTVNLNREE [F1G]	4.78
QQMEKIEHGYENMNHFTVNLNREE [F1Q]	4.85
PQMEKIEHGYENMNHFTVNLNREE [F1P]	4.65
AQMEKIEHGYENMNHFTVNLNREE [F1A]	4.71
RQMEKIEHGYENMNHFTVNLNREE [F1R]	4.45
HQMEKIEHGYENMNHFTVNLNREE [F1H]	4.58
IQMEKIEHGYENMNHFTVNLNREE [F1I]	4.23
EQMEKIEHGYENMNHFTVNLNREE [F1E]	5.1
CQMEKIEHGYENMNHFTVNLNREE [F1C]	3.72
SQMEKIEHGYENMNHFTVNLNREE [F1S]	4.48
MQMEKIEHGYENMNHFTVNLNREE [F1M]	4.27
NQMEKIEHGYENMNHFTVNLNREE [F1N]	5.02
KQMEKIEHGYENMNHFTVNLNREE [F1K]	4.17
